# Results taken from IntAct's records for PubMed 28017832.
# B1: Vacuolar protein sorting-associated protein 33B (Homo sapiens), Q9H267 (parent)
# chain: MAFPHRPDAPELPDFSMLKRLARDQLIYLLEQLPGKKDLFIEADLMSPLDRIANVSILKQHEVDKLYKVENKPALSSNEQLCFLVRPRIKNMRYIASLVNADKLAGRTRKYKVIFSPQKFYACEMVLEEEGIYGDVSCDEWAFSLLPLDVDLLSMELPEFFRDYFLEGDQRWINTVAQALHLLSTLYGPFPNCYGIGRCAKMAYELWRNLEEEEDGETKGRRPEIGHIFLLDRDVDFVTALCSQVVYEGLVDDTFRIKCGSVDFGPEVTSSDKSLKVLLNAEDKVFNEIRNEHFSNVFGFLSQKARNLQAQYDRRRGMDIKQMKNFVSQELKGLKQEHRLLSLHIGACESIMKKKTKQDFQELIKTEHALLEGFNIRESTSYIEEHIDRQVSPIESLRLMCLLSITENGLIPKDYRSLKTQYLQSYGPEHLLTFSNLRRAGLLTEQAPGDTLTAVESKVSKLVTDKAAGKITDAFSSLAKRSNFRAISKKLNLIPRVDGEYDLKVPRDMAYVFGGAYVPLSCRIIEQVLERRSWQGLDEVVRLLNCSDFAFTDMTKEDKASSESLRLILVVFLGGCTFSEISALRFLGREKGYRFIFLTTAVTNSARLMEAMSEVKA
# partner: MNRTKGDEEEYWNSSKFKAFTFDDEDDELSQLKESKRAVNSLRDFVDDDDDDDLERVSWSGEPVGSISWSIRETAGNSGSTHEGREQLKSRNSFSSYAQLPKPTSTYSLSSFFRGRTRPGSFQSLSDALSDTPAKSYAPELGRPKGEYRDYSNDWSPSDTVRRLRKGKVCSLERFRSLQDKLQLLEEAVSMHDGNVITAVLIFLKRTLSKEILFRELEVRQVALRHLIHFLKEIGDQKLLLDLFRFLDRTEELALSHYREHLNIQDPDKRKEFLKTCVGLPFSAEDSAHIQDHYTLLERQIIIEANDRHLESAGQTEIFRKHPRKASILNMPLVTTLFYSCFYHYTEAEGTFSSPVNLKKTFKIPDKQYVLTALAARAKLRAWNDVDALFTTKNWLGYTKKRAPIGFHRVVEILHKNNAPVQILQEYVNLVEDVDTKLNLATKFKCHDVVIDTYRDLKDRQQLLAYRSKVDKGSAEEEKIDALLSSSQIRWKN
# Variants of: B1
# Details: with spe39_human VIPAS39, Q9H9C1
row,Variant,effect of a mutation on the interaction
1,G131E,decreasing interaction strength
